Results from publication PMC8499627 (Antibody Therapeutics, 2021).

T1: SEQ13 peptide (HBsAg aa 113-135) (Hepatitis B virus, strain  …, UniProt P03141)
T1 construct: source: synthetic peptide, bought: Sangon Biotech
T1 chain: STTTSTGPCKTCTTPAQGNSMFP


Tests used:
Settings in all cases: both partners purified
[1] = target: T1, SEQ13 peptide (HBsAg aa 113-135); assay: ELISA; indirect ELISA kits (Beijing Wantai) on HBsAg, CR-T3-SEQ13 or SEQ13 peptides; purified antibodies titrated, EC50s
[2] = target: T2, Recombinant HBsAg protein (hepatitis B surface antigen) (Hepatitis B virus, strain ; …, UniProt P03141); assay: as above
T2 construct: source: bought: Beijing Wantai Biological Pharmacy Enterprise

[3] = target: T2, Recombinant HBsAg protein (hepatitis B …); assay: SPR; Biacore 3000, 10°C; HBsAg immobilised (2 400 RU, sodium acetate pH 4.5); antibody 1.56-100 nM, 50 μL/min, 90 sec association, 600 sec dissociation

Row | Binder | binding result [1] | binding result [2] | Kd [3] [nM]
1 | C3-13 (antibody, V domains shown, cynomolgus monkey VH of monkey #3; cynomolgus monkey VL of monkey #3; Monkey-human chimeric antibody, human IgG1 constant regions; source: HEK-293F, transfected, purified (protein A)) VH: QVQLQESGPRLVKSSETLPLTCAVSGASNSSNYWSWIRQPPGKGLEWIGRIYGNSGSTDYNPSLKSRVSISTDTSKNQFSLKLSSVTAADTAVYFCARGSVYTYSWGQGVLVTVSS VL: DIQMSQSPDSLAVSLGERVTINCKSSQSLLYSSNNKNYLAWYQQKPGQAPKLLFYWASTRESGVPNRFSGSGSGTDFTLTIRGLQAEDVAVYYCQQHYTTPLTFGQGTKVEIK | binds | binds | 
2 | hu1-23 (antibody, V domains shown, humanized VH: CDRs (IMGT) of C1-23 grafted on the most closely related human germline; humanized VK: CDRs (IMGT) of C1-23 grafted on the most closely related human germline; Human IgG1 CH and CK constant regions; also called humanized 1-23; Humanized antibody hu1-23; source: HEK-293F, transfected, purified (protein A)) VH: QVQLQESGPGLVKPSETLSLTCTVSGGSITSNFWSWIRQPPGKGLEWIGYISGSGTYTDYNPSLKSRVTISVDTSKNQFSLKLSSVTAADTAVYYCARSHDYGSNDYAFDFWGQGTTVTVSS VL: DIQMTQSPSSLSASVGDRVTITCRATQDISSSLNWYQQKPGKAPKLLIYYANRLQSGVPSRFSGSGSGTDFTLTISSLQPEDFATYYCQQYHSLPLTFGGGTKVEIK | binds |  | 1.06
3 | C1-23 (antibody, V domains shown, cynomolgus monkey VH of monkey #1; cynomolgus monkey VL of monkey #1; Monkey-human chimeric antibody, human IgG1 constant regions; parent of hu1-23; source: HEK-293F, transfected, purified (protein A)) VH: QVQLQESGPGLVKPSEILSVTCSVSGGSITSNFWSWIRQPPGKGLEWIGYISGSGTYTDYNPSLRSRVTLSVDTSKNQLSLKLSSVTAADTAVYYCARSHDYGSNDYAFDFWGQGLRVTVSS VL: EIVMTQSPSSLSASVGDRVTITCRATQDISSSLNWYQQKPGKAPQLLIYYANRLESGVPSRFRGSGSGTEFTLTISSLQPEDFTTYYCQQYHSLPLTFGGGTKVEIK | binds | binds | 
